The text below walks through data of the supplement of paper PMC10567573.

B1: ATL3 (parent)
chain: YGLQGGMAFLDKRLQVKEHQHEEI
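Also: lentivirally expressed fusions sorted by FACS into six bins by GFP to DsRed ratio, PSI derived from sequencing read proportions per bin multiplied by bin number.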

Variants of B1 are the subject of this data set. The experiment in a line: protein stability index of a GFP-peptide fusion (GPS, HEK-293T) (PSI 1-6); higher = more stable. Particulars: c terminus: a fixed tail appended.
For YHLQGGMAFLDKRLQVKEHQHEEI [G2H], the protein stability index worked out at 2.3.

In the case of YILQGGMAFLDKRLQVKEHQHEEI [G2I], the protein stability index is 1.66.

With YNLQGGMAFLDKRLQVKEHQHEEI [G2N], the protein stability index is 2.26.

In the case of YALQGGMAFLDKRLQVKEHQHEEI [G2A], the protein stability index came out at 2.28.

YWLQGGMAFLDKRLQVKEHQHEEI [G2W]: the protein stability index was determined as 2.37.

Consider YCLQGGMAFLDKRLQVKEHQHEEI [G2C], for which the protein stability index is 1.82.

Consider YPLQGGMAFLDKRLQVKEHQHEEI [G2P], for which the protein stability index is 2.63.

As to YFLQGGMAFLDKRLQVKEHQHEEI [G2F], the protein stability index was determined as 2.31.

YRLQGGMAFLDKRLQVKEHQHEEI [G2R]: the protein stability index amounted to 3.49.

Take YLLQGGMAFLDKRLQVKEHQHEEI [G2L]: the protein stability index was found to be 1.93.

In the case of YSLQGGMAFLDKRLQVKEHQHEEI [G2S], the protein stability index is 2.96.

Take YQLQGGMAFLDKRLQVKEHQHEEI [G2Q]: the protein stability index is 2.11.

For YTLQGGMAFLDKRLQVKEHQHEEI [G2T], the protein stability index was determined as 2.05.

Consider YMLQGGMAFLDKRLQVKEHQHEEI [G2M], for which the protein stability index is 2.39.

With YELQGGMAFLDKRLQVKEHQHEEI [G2E], the protein stability index came to 3.28.

On to YKLQGGMAFLDKRLQVKEHQHEEI [G2K], for which the protein stability index turned out to be 3.22.

Take YDLQGGMAFLDKRLQVKEHQHEEI [G2D]: the protein stability index came to 3.52.

Regarding YYLQGGMAFLDKRLQVKEHQHEEI [G2Y], the protein stability index is 2.71.

With YGLQGGMAFEDKRLQVKEHQHEEI [L10E], the protein stability index worked out at 3.82.

On to YGLQGGMAFDDKRLQVKEHQHEEI [L10D], for which the protein stability index came to 4.11.

For the variant YGLQGGMAFADKRLQVKEHQHEEI [L10A], the protein stability index is 3.49.

Consider YGLQGGMAFCDKRLQVKEHQHEEI [L10C], for which the protein stability index is 3.07.

As to YGLNGGMAFLDKRLQVKEHQHEEI [Q4N], the protein stability index stood at 3.07.

As to YGLSGGMAFLDKRLQVKEHQHEEI [Q4S], the protein stability index is 2.16.

Take YGLEGGMAFLDKRLQVKEHQHEEI [Q4E]: the protein stability index came out at 1.92.

In the case of YGLRGGMAFLDKRLQVKEHQHEEI [Q4R], the protein stability index was 2.67.

With YGLHGGMAFLDKRLQVKEHQHEEI [Q4H], the protein stability index is 3.46.

With YGLIGGMAFLDKRLQVKEHQHEEI [Q4I], the protein stability index turned out to be 2.86.

Regarding YGLDGGMAFLDKRLQVKEHQHEEI [Q4D], the protein stability index amounted to 2.18.

For YGLAGGMAFLDKRLQVKEHQHEEI [Q4A], the protein stability index was 3.19.

Regarding YGLWGGMAFLDKRLQVKEHQHEEI [Q4W], the protein stability index turned out to be 2.66.

For the variant YGLKGGMAFLDKRLQVKEHQHEEI [Q4K], the protein stability index turned out to be 3.89.

On to YGLTGGMAFLDKRLQVKEHQHEEI [Q4T], for which the protein stability index was 1.89.

In the case of YGLGGGMAFLDKRLQVKEHQHEEI [Q4G], the protein stability index was determined as 1.98.

Consider YGLLGGMAFLDKRLQVKEHQHEEI [Q4L], for which the protein stability index is 1.75.

In the case of YGLVGGMAFLDKRLQVKEHQHEEI [Q4V], the protein stability index turned out to be 2.25.

Consider YGLCGGMAFLDKRLQVKEHQHEEI [Q4C], for which the protein stability index worked out at 3.19.

Consider YGLFGGMAFLDKRLQVKEHQHEEI [Q4F], for which the protein stability index worked out at 2.32.

As to YGLMGGMAFLDKRLQVKEHQHEEI [Q4M], the protein stability index came out at 2.83.

YGLPGGMAFLDKRLQVKEHQHEEI [Q4P]: the protein stability index stood at 2.37.

Regarding YGLQGGMRFLDKRLQVKEHQHEEI [A8R], the protein stability index is 1.74.

YGLQGGMYFLDKRLQVKEHQHEEI [A8Y]: the protein stability index turned out to be 2.68.

As to YGLQGGMWFLDKRLQVKEHQHEEI [A8W], the protein stability index was found to be 3.35.

On to YGLQGGMIFLDKRLQVKEHQHEEI [A8I], for which the protein stability index was 2.71.

Regarding YGLQGGMTFLDKRLQVKEHQHEEI [A8T], the protein stability index stood at 3.38.

Take YGLQGGMVFLDKRLQVKEHQHEEI [A8V]: the protein stability index turned out to be 2.42.

Consider YGLQGGMCFLDKRLQVKEHQHEEI [A8C], for which the protein stability index was 2.

Turning to YGLQGGMKFLDKRLQVKEHQHEEI [A8K], the protein stability index came out at 1.71.

As to YGLQGGMPFLDKRLQVKEHQHEEI [A8P], the protein stability index was determined as 2.93.

Turning to YGLQGGMEFLDKRLQVKEHQHEEI [A8E], the protein stability index is 2.91.

As for YGLQGGMQFLDKRLQVKEHQHEEI [A8Q], the protein stability index was determined as 2.02.

Consider YGLQGGMSFLDKRLQVKEHQHEEI [A8S], for which the protein stability index turned out to be 2.09.

With YGLQGGMNFLDKRLQVKEHQHEEI [A8N], the protein stability index was 2.33.

As for YGLQGGMHFLDKRLQVKEHQHEEI [A8H], the protein stability index came to 1.4.

As for YGLQGGMDFLDKRLQVKEHQHEEI [A8D], the protein stability index amounted to 3.79.

Consider YGLQGGMLFLDKRLQVKEHQHEEI [A8L], for which the protein stability index turned out to be 2.67.

On to YGLQGGMGFLDKRLQVKEHQHEEI [A8G], for which the protein stability index turned out to be 2.81.

On to YGLQGGMFFLDKRLQVKEHQHEEI [A8F], for which the protein stability index stood at 3.46.

As for YGLQGGYAFLDKRLQVKEHQHEEI [M7Y], the protein stability index was 1.93.

As to YGLQGGAAFLDKRLQVKEHQHEEI [M7A], the protein stability index was 1.38.

As to YGLQGGDAFLDKRLQVKEHQHEEI [M7D], the protein stability index was 2.16.

As for YGLQGGGAFLDKRLQVKEHQHEEI [M7G], the protein stability index is 2.02.

Turning to YGLQGGHAFLDKRLQVKEHQHEEI [M7H], the protein stability index came to 1.75.

As for YGLQGGCAFLDKRLQVKEHQHEEI [M7C], the protein stability index came to 2.48.

Consider YGLQGGFAFLDKRLQVKEHQHEEI [M7F], for which the protein stability index was found to be 3.3.

Regarding YGLQGGTAFLDKRLQVKEHQHEEI [M7T], the protein stability index amounted to 1.7.

In the case of YGLQGGRAFLDKRLQVKEHQHEEI [M7R], the protein stability index is 2.24.

In the case of YGLQGGQAFLDKRLQVKEHQHEEI [M7Q], the protein stability index came out at 1.03.

For YGLQGGLAFLDKRLQVKEHQHEEI [M7L], the protein stability index stood at 2.66.

On to YGLQGGEAFLDKRLQVKEHQHEEI [M7E], for which the protein stability index turned out to be 3.23.

Consider YGLQGGWAFLDKRLQVKEHQHEEI [M7W], for which the protein stability index was determined as 1.47.

For the variant YGLQGGPAFLDKRLQVKEHQHEEI [M7P], the protein stability index was determined as 2.18.

Turning to YGLQGGKAFLDKRLQVKEHQHEEI [M7K], the protein stability index was determined as 3.76.

For YGLQGGSAFLDKRLQVKEHQHEEI [M7S], the protein stability index was found to be 2.05.

Consider YGLQGGIAFLDKRLQVKEHQHEEI [M7I], for which the protein stability index is 2.28.

Consider YGLQGGVAFLDKRLQVKEHQHEEI [M7V], for which the protein stability index turned out to be 2.52.

With YGLQGGNAFLDKRLQVKEHQHEEI [M7N], the protein stability index amounted to 2.23.

Turning to QGLQGGMAFLDKRLQVKEHQHEEI [Y1Q], the protein stability index came out at 4.79.

For NGLQGGMAFLDKRLQVKEHQHEEI [Y1N], the protein stability index was 4.53.

Consider LGLQGGMAFLDKRLQVKEHQHEEI [Y1L], for which the protein stability index stood at 3.38.

Turning to IGLQGGMAFLDKRLQVKEHQHEEI [Y1I], the protein stability index amounted to 4.07.

As for VGLQGGMAFLDKRLQVKEHQHEEI [Y1V], the protein stability index was determined as 3.92.

For SGLQGGMAFLDKRLQVKEHQHEEI [Y1S], the protein stability index came out at 4.46.

For GGLQGGMAFLDKRLQVKEHQHEEI [Y1G], the protein stability index was found to be 4.73.

With KGLQGGMAFLDKRLQVKEHQHEEI [Y1K], the protein stability index was determined as 4.26.

Turning to CGLQGGMAFLDKRLQVKEHQHEEI [Y1C], the protein stability index stood at 2.19.

Consider PGLQGGMAFLDKRLQVKEHQHEEI [Y1P], for which the protein stability index worked out at 4.22.

Take WGLQGGMAFLDKRLQVKEHQHEEI [Y1W]: the protein stability index was determined as 2.45.

Consider FGLQGGMAFLDKRLQVKEHQHEEI [Y1F], for which the protein stability index is 2.51.

In the case of RGLQGGMAFLDKRLQVKEHQHEEI [Y1R], the protein stability index was 4.07.

As to TGLQGGMAFLDKRLQVKEHQHEEI [Y1T], the protein stability index is 4.08.

Turning to EGLQGGMAFLDKRLQVKEHQHEEI [Y1E], the protein stability index is 4.35.

Take MGLQGGMAFLDKRLQVKEHQHEEI [Y1M]: the protein stability index is 4.29.

In the case of DGLQGGMAFLDKRLQVKEHQHEEI [Y1D], the protein stability index is 5.03.
